# Measured values as given in patent US20210388087A1 (Chugai, published 2021).
# Target: T1, CD3 epsilon homodimer protein (UniProt P07766 23-126)
# T1 construct: also called CD3 (CD3 epsilon)
# Assay: SPR, antibody over immobilised CD3e homodimer;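 further: SPR at 25 °C with CD3 epsilon homodimer amine-coupled to a CM4 sensor chip and antibody flowed over as analyte in HBS-EP+ running buffer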
# T1 sequence (P07766 23-126): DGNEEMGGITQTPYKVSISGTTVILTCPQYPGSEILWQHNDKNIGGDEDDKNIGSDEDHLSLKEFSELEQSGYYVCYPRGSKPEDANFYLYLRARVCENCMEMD
row,Binder,KD ratio to GLS3000
1,"CE115HA000/GLS3000 R24E (antibody, IgG1, name in Kabat numbering, V domains shown, one-arm IgG1) VH: QVQLVESGGGVVQPGRSLRLSCAASGFTFSNAWMHWVRQAPGKGLEWVAQIKAKSNNYATYYAESVKGRFTISRDDSKNSLYLQMNSLKTEDTAVYYCRYVHYGAYYGVDAWGQGTTVTVSS VL: DIVMTQSPLSLPVTPGEPASISCESSQSLVHSNRNTYLHWYQQKPGQAPRLLIYKVSNRFSGVPDRFSGSGSGTDFTLKISRVEAEDVGVYYCGQGTQVPYTFGQGTKLEIK",0.89
2,"CE115HA000/GLS3000 R29G (antibody, IgG1, name in Kabat numbering, V domains shown, one-arm IgG1) VH: QVQLVESGGGVVQPGRSLRLSCAASGFTFSNAWMHWVRQAPGKGLEWVAQIKAKSNNYATYYAESVKGRFTISRDDSKNSLYLQMNSLKTEDTAVYYCRYVHYGAYYGVDAWGQGTTVTVSS VL: DIVMTQSPLSLPVTPGEPASISCRSSQSLVHSNGNTYLHWYQQKPGQAPRLLIYKVSNRFSGVPDRFSGSGSGTDFTLKISRVEAEDVGVYYCGQGTQVPYTFGQGTKLEIK",0.62
3,"CE115HA000/GLS3000 R24T (antibody, IgG1, name in Kabat numbering, V domains shown, one-arm IgG1) VH: QVQLVESGGGVVQPGRSLRLSCAASGFTFSNAWMHWVRQAPGKGLEWVAQIKAKSNNYATYYAESVKGRFTISRDDSKNSLYLQMNSLKTEDTAVYYCRYVHYGAYYGVDAWGQGTTVTVSS VL: DIVMTQSPLSLPVTPGEPASISCTSSQSLVHSNRNTYLHWYQQKPGQAPRLLIYKVSNRFSGVPDRFSGSGSGTDFTLKISRVEAEDVGVYYCGQGTQVPYTFGQGTKLEIK",1.03
4,"CE115HA000/GLS3000 R24P (antibody, IgG1, name in Kabat numbering, V domains shown, one-arm IgG1) VH: QVQLVESGGGVVQPGRSLRLSCAASGFTFSNAWMHWVRQAPGKGLEWVAQIKAKSNNYATYYAESVKGRFTISRDDSKNSLYLQMNSLKTEDTAVYYCRYVHYGAYYGVDAWGQGTTVTVSS VL: DIVMTQSPLSLPVTPGEPASISCPSSQSLVHSNRNTYLHWYQQKPGQAPRLLIYKVSNRFSGVPDRFSGSGSGTDFTLKISRVEAEDVGVYYCGQGTQVPYTFGQGTKLEIK",0.34
5,"CE115HA000/GLS3000 R24S (antibody, IgG1, name in Kabat numbering, V domains shown, one-arm IgG1) VH: QVQLVESGGGVVQPGRSLRLSCAASGFTFSNAWMHWVRQAPGKGLEWVAQIKAKSNNYATYYAESVKGRFTISRDDSKNSLYLQMNSLKTEDTAVYYCRYVHYGAYYGVDAWGQGTTVTVSS VL: DIVMTQSPLSLPVTPGEPASISCSSSQSLVHSNRNTYLHWYQQKPGQAPRLLIYKVSNRFSGVPDRFSGSGSGTDFTLKISRVEAEDVGVYYCGQGTQVPYTFGQGTKLEIK",0.97
6,"CE115HA000/GLS3000 R24G (antibody, IgG1, name in Kabat numbering, V domains shown, one-arm IgG1) VH: QVQLVESGGGVVQPGRSLRLSCAASGFTFSNAWMHWVRQAPGKGLEWVAQIKAKSNNYATYYAESVKGRFTISRDDSKNSLYLQMNSLKTEDTAVYYCRYVHYGAYYGVDAWGQGTTVTVSS VL: DIVMTQSPLSLPVTPGEPASISCGSSQSLVHSNRNTYLHWYQQKPGQAPRLLIYKVSNRFSGVPDRFSGSGSGTDFTLKISRVEAEDVGVYYCGQGTQVPYTFGQGTKLEIK",0.92
7,"CE115HA000/GLS3000 R24Q (antibody, IgG1, name in Kabat numbering, V domains shown, one-arm IgG1) VH: QVQLVESGGGVVQPGRSLRLSCAASGFTFSNAWMHWVRQAPGKGLEWVAQIKAKSNNYATYYAESVKGRFTISRDDSKNSLYLQMNSLKTEDTAVYYCRYVHYGAYYGVDAWGQGTTVTVSS VL: DIVMTQSPLSLPVTPGEPASISCQSSQSLVHSNRNTYLHWYQQKPGQAPRLLIYKVSNRFSGVPDRFSGSGSGTDFTLKISRVEAEDVGVYYCGQGTQVPYTFGQGTKLEIK",0.87
8,"CE115HA000/GLS3000 R29D (antibody, IgG1, name in Kabat numbering, V domains shown, one-arm IgG1) VH: QVQLVESGGGVVQPGRSLRLSCAASGFTFSNAWMHWVRQAPGKGLEWVAQIKAKSNNYATYYAESVKGRFTISRDDSKNSLYLQMNSLKTEDTAVYYCRYVHYGAYYGVDAWGQGTTVTVSS VL: DIVMTQSPLSLPVTPGEPASISCRSSQSLVHSNDNTYLHWYQQKPGQAPRLLIYKVSNRFSGVPDRFSGSGSGTDFTLKISRVEAEDVGVYYCGQGTQVPYTFGQGTKLEIK",1.58
9,"CE115HA000/GLS3000 R29A (antibody, IgG1, name in Kabat numbering, V domains shown, one-arm IgG1) VH: QVQLVESGGGVVQPGRSLRLSCAASGFTFSNAWMHWVRQAPGKGLEWVAQIKAKSNNYATYYAESVKGRFTISRDDSKNSLYLQMNSLKTEDTAVYYCRYVHYGAYYGVDAWGQGTTVTVSS VL: DIVMTQSPLSLPVTPGEPASISCRSSQSLVHSNANTYLHWYQQKPGQAPRLLIYKVSNRFSGVPDRFSGSGSGTDFTLKISRVEAEDVGVYYCGQGTQVPYTFGQGTKLEIK",1.15
10,"CE115HA000/GLS3000 R24Y (antibody, IgG1, name in Kabat numbering, V domains shown, one-arm IgG1) VH: QVQLVESGGGVVQPGRSLRLSCAASGFTFSNAWMHWVRQAPGKGLEWVAQIKAKSNNYATYYAESVKGRFTISRDDSKNSLYLQMNSLKTEDTAVYYCRYVHYGAYYGVDAWGQGTTVTVSS VL: DIVMTQSPLSLPVTPGEPASISCYSSQSLVHSNRNTYLHWYQQKPGQAPRLLIYKVSNRFSGVPDRFSGSGSGTDFTLKISRVEAEDVGVYYCGQGTQVPYTFGQGTKLEIK",0.94

# Continued, values first:
row,KD ratio to GLS3000,Binder
1,0.88,"CE115HA000/GLS3000 R54G (antibody, IgG1, name in Kabat numbering, V domains shown, one-arm IgG1) VH: QVQLVESGGGVVQPGRSLRLSCAASGFTFSNAWMHWVRQAPGKGLEWVAQIKAKSNNYATYYAESVKGRFTISRDDSKNSLYLQMNSLKTEDTAVYYCRYVHYGAYYGVDAWGQGTTVTVSS VL: DIVMTQSPLSLPVTPGEPASISCRSSQSLVHSNRNTYLHWYQQKPGQAPRLLIYKVSNGFSGVPDRFSGSGSGTDFTLKISRVEAEDVGVYYCGQGTQVPYTFGQGTKLEIK"
2,14,"CE115HA000/GLS3000 R29P (antibody, IgG1, name in Kabat numbering, V domains shown, one-arm IgG1) VH: QVQLVESGGGVVQPGRSLRLSCAASGFTFSNAWMHWVRQAPGKGLEWVAQIKAKSNNYATYYAESVKGRFTISRDDSKNSLYLQMNSLKTEDTAVYYCRYVHYGAYYGVDAWGQGTTVTVSS VL: DIVMTQSPLSLPVTPGEPASISCRSSQSLVHSNPNTYLHWYQQKPGQAPRLLIYKVSNRFSGVPDRFSGSGSGTDFTLKISRVEAEDVGVYYCGQGTQVPYTFGQGTKLEIK"
3,1.02,"CE115HA000/GLS3000 R29T (antibody, IgG1, name in Kabat numbering, V domains shown, one-arm IgG1) VH: QVQLVESGGGVVQPGRSLRLSCAASGFTFSNAWMHWVRQAPGKGLEWVAQIKAKSNNYATYYAESVKGRFTISRDDSKNSLYLQMNSLKTEDTAVYYCRYVHYGAYYGVDAWGQGTTVTVSS VL: DIVMTQSPLSLPVTPGEPASISCRSSQSLVHSNTNTYLHWYQQKPGQAPRLLIYKVSNRFSGVPDRFSGSGSGTDFTLKISRVEAEDVGVYYCGQGTQVPYTFGQGTKLEIK"
4,1.05,"CE115HA000/GLS3000 R29S (antibody, IgG1, name in Kabat numbering, V domains shown, one-arm IgG1) VH: QVQLVESGGGVVQPGRSLRLSCAASGFTFSNAWMHWVRQAPGKGLEWVAQIKAKSNNYATYYAESVKGRFTISRDDSKNSLYLQMNSLKTEDTAVYYCRYVHYGAYYGVDAWGQGTTVTVSS VL: DIVMTQSPLSLPVTPGEPASISCRSSQSLVHSNSNTYLHWYQQKPGQAPRLLIYKVSNRFSGVPDRFSGSGSGTDFTLKISRVEAEDVGVYYCGQGTQVPYTFGQGTKLEIK"
5,1.6,"CE115HA000/GLS3000 R29I (antibody, IgG1, name in Kabat numbering, V domains shown, one-arm IgG1) VH: QVQLVESGGGVVQPGRSLRLSCAASGFTFSNAWMHWVRQAPGKGLEWVAQIKAKSNNYATYYAESVKGRFTISRDDSKNSLYLQMNSLKTEDTAVYYCRYVHYGAYYGVDAWGQGTTVTVSS VL: DIVMTQSPLSLPVTPGEPASISCRSSQSLVHSNINTYLHWYQQKPGQAPRLLIYKVSNRFSGVPDRFSGSGSGTDFTLKISRVEAEDVGVYYCGQGTQVPYTFGQGTKLEIK"
6,2.25,"CE115HA000/GLS3000 R29V (antibody, IgG1, name in Kabat numbering, V domains shown, one-arm IgG1) VH: QVQLVESGGGVVQPGRSLRLSCAASGFTFSNAWMHWVRQAPGKGLEWVAQIKAKSNNYATYYAESVKGRFTISRDDSKNSLYLQMNSLKTEDTAVYYCRYVHYGAYYGVDAWGQGTTVTVSS VL: DIVMTQSPLSLPVTPGEPASISCRSSQSLVHSNVNTYLHWYQQKPGQAPRLLIYKVSNRFSGVPDRFSGSGSGTDFTLKISRVEAEDVGVYYCGQGTQVPYTFGQGTKLEIK"
7,0.9,"CE115HA000/GLS3000 R29L (antibody, IgG1, name in Kabat numbering, V domains shown, one-arm IgG1) VH: QVQLVESGGGVVQPGRSLRLSCAASGFTFSNAWMHWVRQAPGKGLEWVAQIKAKSNNYATYYAESVKGRFTISRDDSKNSLYLQMNSLKTEDTAVYYCRYVHYGAYYGVDAWGQGTTVTVSS VL: DIVMTQSPLSLPVTPGEPASISCRSSQSLVHSNLNTYLHWYQQKPGQAPRLLIYKVSNRFSGVPDRFSGSGSGTDFTLKISRVEAEDVGVYYCGQGTQVPYTFGQGTKLEIK"
8,1.8,"CE115HA000/GLS3000 R54D (antibody, IgG1, name in Kabat numbering, V domains shown, one-arm IgG1) VH: QVQLVESGGGVVQPGRSLRLSCAASGFTFSNAWMHWVRQAPGKGLEWVAQIKAKSNNYATYYAESVKGRFTISRDDSKNSLYLQMNSLKTEDTAVYYCRYVHYGAYYGVDAWGQGTTVTVSS VL: DIVMTQSPLSLPVTPGEPASISCRSSQSLVHSNRNTYLHWYQQKPGQAPRLLIYKVSNDFSGVPDRFSGSGSGTDFTLKISRVEAEDVGVYYCGQGTQVPYTFGQGTKLEIK"
9,1.08,"CE115HA000/GLS3000 R29Y (antibody, IgG1, name in Kabat numbering, V domains shown, one-arm IgG1) VH: QVQLVESGGGVVQPGRSLRLSCAASGFTFSNAWMHWVRQAPGKGLEWVAQIKAKSNNYATYYAESVKGRFTISRDDSKNSLYLQMNSLKTEDTAVYYCRYVHYGAYYGVDAWGQGTTVTVSS VL: DIVMTQSPLSLPVTPGEPASISCRSSQSLVHSNYNTYLHWYQQKPGQAPRLLIYKVSNRFSGVPDRFSGSGSGTDFTLKISRVEAEDVGVYYCGQGTQVPYTFGQGTKLEIK"
10,0.85,"CE115HA000/GLS3000 R54A (antibody, IgG1, name in Kabat numbering, V domains shown, one-arm IgG1) VH: QVQLVESGGGVVQPGRSLRLSCAASGFTFSNAWMHWVRQAPGKGLEWVAQIKAKSNNYATYYAESVKGRFTISRDDSKNSLYLQMNSLKTEDTAVYYCRYVHYGAYYGVDAWGQGTTVTVSS VL: DIVMTQSPLSLPVTPGEPASISCRSSQSLVHSNRNTYLHWYQQKPGQAPRLLIYKVSNAFSGVPDRFSGSGSGTDFTLKISRVEAEDVGVYYCGQGTQVPYTFGQGTKLEIK"
11,0.84,"CE115HA000/GLS3000 R54E (antibody, IgG1, name in Kabat numbering, V domains shown, one-arm IgG1) VH: QVQLVESGGGVVQPGRSLRLSCAASGFTFSNAWMHWVRQAPGKGLEWVAQIKAKSNNYATYYAESVKGRFTISRDDSKNSLYLQMNSLKTEDTAVYYCRYVHYGAYYGVDAWGQGTTVTVSS VL: DIVMTQSPLSLPVTPGEPASISCRSSQSLVHSNRNTYLHWYQQKPGQAPRLLIYKVSNEFSGVPDRFSGSGSGTDFTLKISRVEAEDVGVYYCGQGTQVPYTFGQGTKLEIK"
